Experimental data as given in patent US20240238451A1.

What was measured:
Assay in all cases: cell-based or functional assay
EGFP [GFP: P42212] = target: EGFP [GFP: P42212]
ALFA-tagged GAL4-VP16 = target: ALFA-tagged GAL4-VP16
mCherry = target: mCherry

Gluc-biNIR-FbGFP fusion
reduction of secreted Gluc signal with mTagBFP2 instead of EGFP (HeLa) (EGFP [GFP: P42212]): 78%

NIR-FbGFP-GAL4 fusion
decrease of Gluc bioluminescent signal with mTagBFP2 instead of EGFP (GAL4/UAS reporter, HeLa) (EGFP [GFP: P42212]): 25 fold
reduction of mCherry reporter level in the absence of EGFP (pUAS-mCherry reporter) (EGFP [GFP: P42212]): 3 fold

NIR-FbGFP-NbALFA (bispecific antibody)
reduction of Gluc signal without EGFP against EGFP-expressing cells (ALFA-GAL4, pUAS-Gluc, HeLa) (ALFA-tagged GAL4-VP16): 75%

NIR-FbmCherry-NbGFP fusion (bispecific antibody)
reduction in EGFP fluorescence in the absence of mCherry (EGFP [GFP: P42212]): 60%

biNIR-FbGFP-GAL4
decrease of Gluc signal with mTagBFP2 instead of EGFP (GAL4/UAS reporter, HeLa) (EGFP [GFP: P42212]): 50 fold

biNIR-FbGFP-NbALFA (bispecific antibody)
reduction of Gluc signal in the absence of EGFP (ALFA-GAL4, pUAS-Gluc, HeLa) (ALFA-tagged GAL4-VP16): 85%

bispecific NIR-FbGFP-NIR-FbmCherry fusion (bispecific antibody)
drop of NIR fluorescence when only EGFP (no mCherry) is co-expressed (mCherry): 10 fold
drop of NIR fluorescence when only mCherry (no EGFP) is co-expressed (EGFP [GFP: P42212]): 10 fold
